Test [1] concerns the target Pre10 proteasome subunit C-terminally fused with Fpr1 (strain Pre10-FPR1) (S. cerevisiae) (UniProt P21242). Kind of test: cell-based or functional assay.
Test [2] has as its target Rpn10 proteasome subunit C-terminally fused with Fpr1 (strain Rpn10-FPR1) (S. cerevisiae) (UniProt P38886). Kind of test: cell-based or functional assay.

Chain of Rpn10 proteasome subunit C-terminally fused with Fpr1 (strain Rpn10-FPR1) (S. cerevisiae) (P38886 other isoform, or with tags, fused parts or gaps): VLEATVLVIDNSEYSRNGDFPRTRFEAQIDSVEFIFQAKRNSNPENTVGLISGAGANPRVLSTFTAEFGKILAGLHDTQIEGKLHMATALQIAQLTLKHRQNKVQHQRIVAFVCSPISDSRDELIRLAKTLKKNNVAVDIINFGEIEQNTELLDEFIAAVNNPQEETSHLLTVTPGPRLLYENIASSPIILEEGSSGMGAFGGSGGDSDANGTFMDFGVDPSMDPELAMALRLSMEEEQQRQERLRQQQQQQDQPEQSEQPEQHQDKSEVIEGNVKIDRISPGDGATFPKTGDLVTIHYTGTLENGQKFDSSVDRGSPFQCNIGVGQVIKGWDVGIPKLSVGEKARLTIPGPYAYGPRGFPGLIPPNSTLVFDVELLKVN
Chain of Pre10 proteasome subunit C-terminally fused with Fpr1 (strain Pre10-FPR1) (S. cerevisiae) (P21242 other isoform, or with tags, fused parts or gaps): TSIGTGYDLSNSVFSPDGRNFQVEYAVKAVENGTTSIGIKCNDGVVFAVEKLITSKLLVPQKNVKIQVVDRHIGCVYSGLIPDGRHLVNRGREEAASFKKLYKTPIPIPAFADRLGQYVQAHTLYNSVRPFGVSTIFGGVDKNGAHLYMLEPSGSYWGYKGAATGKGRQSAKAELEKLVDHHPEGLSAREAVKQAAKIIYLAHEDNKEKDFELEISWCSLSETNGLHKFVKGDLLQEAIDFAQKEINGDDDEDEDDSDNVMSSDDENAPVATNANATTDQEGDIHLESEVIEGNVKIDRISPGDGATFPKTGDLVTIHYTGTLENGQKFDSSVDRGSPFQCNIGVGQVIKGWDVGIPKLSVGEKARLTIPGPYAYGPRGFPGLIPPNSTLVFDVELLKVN

With “HA epitope-tagged Tor-His3 expressed in yeast (p415-TOR-link-HIS3HA) (from UniProt P35169 1883-2078; P06633 1-220)”, the half-life of reporter degradation in vivo with rapamycin (cycloheximide chase, anti-HA Western) in test [1] and in test [2] was 20 to 30 min each time.

For the origin of these results see US20050152888A1.
